Data reported in patent US20160158293A1, “Treatment of Ocular Conditions Using Progenitor Cells” (JANSSEN BIOTECH, INC., priority 2014, published 2016).

B1: Nogo-A: myelin protein Nogo-A (R&D Systems), growth-inhibiting coating (protein, UniProt Q9NQC3 1-1192, looked up)
Reticulon-4: MEDLDQSPLVSSSDSPPRPQPAFKYQFVREPEDEEEEEEEEEEDEDEDLEELEVLERKPAAGLSAAPVPTAPAAGAPLMDFGNDFVPPAPRGPLPAAPPVAPERQPSWDPSPVSSTVPAPSPLSAAAVSPSKLPEDDEPPARPPPPPPASVSPQAEPVWTPPAPAPAAPPSTPAAPKRRGSSGSVDETLFALPAASEPVIRSSAENMDLKEQPGNTISAGQEDFPSVLLETAASLPSLSPLSAASFKEHEYLGNLSTVLPTEGTLQENVSEASKEVSEKAKTLLIDRDLTEFSELEYSEMGSSFSVSPKAESAVIVANPREEIIVKNKDEEEKLVSNNILHNQQELPTALTKLVKEDEVVSSEKAKDSFNEKRVAVEAPMREEYADFKPFERVWEVKDSKEDSDMLAAGGKIESNLESKVDKKCFADSLEQTNHEKDSESSNDDTSFPSTPEGIKDRSGAYITCAPFNPAATESIATNIFPLLGDPTSENKTDEKKIEEKKAQIVTEKNTSTKTSNPFLVAAQDSETDYVTTDNLTKVTEEVVANMPEGLTPDLVQEACESELNEVTGTKIAYETKMDLVQTSEVMQESLYPAAQLCPSFEESEATPSPVLPDIVMEAPLNSAVPSAGASVIQPSSSPLEASSVNYESIKHEPENPPPYEEAMSVSLKKVSGIKEEIKEPENINAALQETEAPYISIACDLIKETKLSAEPAPDFSDYSEMAKVEQPVPDHSELVEDSSPDSEPVDLFSDDSIPDVPQKQDETVMLVKESLTETSFESMIEYENKEKLSALPPEGGKPYLESFKLSLDNTKDTLLPDEVSTLSKKEKIPLQMEELSTAVYSNDDLFISKEAQIRETETFSDSSPIEIIDEFPTLISSKTDSFSKLAREYTDLEVSHKSEIANAPDGAGSLPCTELPHDLSLKNIQPKVEEKISFSDDFSKNGSATSKVLLLPPDVSALATQAEIESIVKPKVLVKEAEKKLPSDTEKEDRSPSAIFSAELSKTSVVDLLYWRDIKKTGVVFGASLFLLLSLTVFSIVSVTAYIALALLSVTISFRIYKGVIQAIQKSDEGHPFRAYLESEVAISEELVQKYSNSALGHVNCTIKELRRLFLVDDLVDSLKFAVLMWVFTYVGALFNGLTLLILALISLFSVPVIYERHQAQIDHYLGLANKNVKDAMAKIQAKIPGLKRKAE

Key:
[1] = tested on: retinal ganglion cells (RGCs); experiment: Synapse assay: co-localized Bassoon/Homer synaptic puncta by immunocytochemistry; assay type: cell-based, Sprague-Dawley rat; details: 32 μM GBP added together with UCM
Description: (§1) Retinal Ganglion Cells: Retinal ganglion cells (RGCs) were purified by sequential immuno-panning from P7 (postnatal day 7) Sprague-Dawley rat retinas (Charles River, Wilmington, Mass.) of either sex as previously described (Winzeler A, Wang J T., Cold Spring Harbor Protocols, 2013; 643-652). Briefly, retinas were dissected and dissociated with papain (6 U/mL, Worthington, Burlingame, Calif.). Dissociated cells were panned first with Bandeiraea Simplicifolia Lectin I (BSL, Vector laboratories, Burlingame, Calif.) coated petri dishes to remove immune cells, cell debris and fibroblasts. The unbound cells were transferred to a petri dish coated with anti-Thy1 (clone T11D7) antibody for specific isolation of RGCs. The purified RGCs were gently trypsinized and re-plated onto poly-D-Lysine (PDL) and laminin-coated glass coverslips in 24-well plates (35,000 cells/coverslip). […]
Synapse formation was assessed by immunocytological analyses of the co-localization of pre-(Bassoon) and post-synaptic (Homer) markers, and electrophysiology. […] Morphologically healthy single cells that were at least two cell diameters from their nearest neighbor were identified randomly by DAPI fluorescence. […]

[2] = tested on: retinal ganglion cells (RGCs); experiment: Neurite outgrowth assay under growth-inhibiting conditions (CSPG, Nogo-A, MBP); assay type: cell-based, Sprague-Dawley rat
Description: as §1, with “RGCs.” for “RGCs. The purified RGCs were gently trypsinized and re-plated onto poly-D-Lysine (PDL) and laminin-coated glass coverslips in 24-well plates (35,000 cells/coverslip).”
To test neurite outgrowth under pathologic (i.e. growth-inhibiting) culture conditions, the RGCs (1,500 cells/coverslip) were seeded onto coverslips that were coated with various concentrations of chondroitin sulfate proteoglycan (CSPG, EMD Millipore, Billerica, Mass.), Nogo-A (R&D Systems, Minneapolis, Minn.) or in the presence of soluble myelin basic protein (MBP, 10 ug/mL, Sigma-Aldrich, St. Louis, Mo.). […] At least 30 cells per condition were imaged and analyzed per experiment and the results presented are the average of 2-3 independent experiments. Neuronal morphology was analyzed using neurite outgrowth application module in Metamorph software (Molecular Devices). […]

Molecule | UCM-induced synapse formation in the presence of gabapentin [1] | neurite growth inhibited ([2]; at 2 μg/cm^2 coating) | coating concentration from which neurite outgrowth is hindered/blocked ([2]; coated coverslips)
NCC1(CC(=O)O)CCCCC1 [GBP, Gabapentin] | blocked the synaptogenic factors | – | –
B1 | – | more than 50% | 1 μg/cm^2
